# Measured values as given in patent US20240192215A1 (E AND S HEALTHCARE, published 2024).
# T1: Peptide_008
# T1 peptide: HSQHHHHHHHHVKQI
# T2: Peptide_017
# T2 peptide: HHVKQIESKTAFQEA
# T3: Peptide_029
# T3 peptide: QEALDAAGDKLVVVD
# T4: Peptide_032
# T4 peptide: LDAAGDKLVVVDFSA
# T5: Peptide_033
# T5 peptide: DAAGDKLVVVDFSAT
# T6: Peptide_040
# T6 peptide: VVVDFSATWCGPCKM
# T7: Peptide_041
# T7 peptide: VVDFSATWCGPCKMI
# T8: Peptide_042
# T8 peptide: VDFSATWCGPCKMIK
# T9: Peptide_061
# T9 peptide: SLSEKYSNVIFLEVD
# T10: Peptide_068
# T10 peptide: NVIFLEVDVDDCQDV
# T11: Peptide_069
# T11 peptide: VIFLEVDVDDCQDVA
# T12: Peptide_070
# T12 peptide: IFLEVDVDDCQDVAS
# T13: Peptide_073
# T13 construct: also called EVDVDDCQDVASECE
# T13 peptide: EVDVDDCQDVASECE
# T14: Peptide_078
# T14 peptide: DCQDVASECEVKCMP
# T15: Peptide_083
# T15 peptide: ASECEVKCMPTFQFF
# T16: Peptide_001
# T16 peptide: VATAADVHSQHHHHH
# T17: Peptide_087
# T17 peptide: EVKCMPTFQFFKKGQ
# T18: Peptide_091
# T18 peptide: MPTFQFFKKGQKVGE
# T19: Peptide_098
# T19 peptide: KKGQKVGEFSGANKE
# T20: Peptide_099
# T20 peptide: KGQKVGEFSGANKEK
# T21: Peptide_101
# T21 peptide: QKVGEFSGANKEKLE
# T22: Peptide_002
# T22 peptide: ATAADVHSQHHHHHH
# T23: Peptide_103
# T23 peptide: VGEFSGANKEKLEAT
# T24: Peptide_104
# T24 peptide: GEFSGANKEKLEATI
# T25: Peptide_106
# T25 construct: also called FSGANKEKLEATINE
# T25 peptide: FSGANKEKLEATINE
# T26: Peptide_108
# T26 peptide: GANKEKLEATINELV
# T27: Peptide_003
# T27 peptide: TAADVHSQHHHHHHH
# T28: Peptide_005 (human)
# T28 construct: 15-mer on microarray; not native form, recombinant insert region
# T28 peptide: ADVHSQHHHHHHHHV
# Legend:
# Assay in all cases: peptide microarray, anti-mouse IgG DyLight 650, MMC2 heatmap (Example 17)
# Peptide_008 = target: T1, Peptide_008
# Method: (§1) 5, 1, 0.2, 0.04, 0.008 and 0.0016 μg/mL serial dilutions were incubated on a single multi-well microarray slide at 30° C. for 1 hour. The slide includes 21 individual mini-arrays (one mini-array per sample dilution).
# (§2) DyLight 650 was used as a label. False-positive binding to a peptide was evaluated by performing one additional control incubation in which only a secondary antibody was applied on the same microarray slide. Before performing each step, the microarrays were washed with a washing buffer.
# (§3) To visualize the obtained results and compare binding regions across individual cultures, as shown in FIGS. 21A to 21D, heatmap diagrams were calculated. In FIGS. 21A to 21D, the fluorescence intensity is expressed in a color-coded manner, white indicates no binding, and red indicates strong binding. For all evaluations, the MMC2-value of the average pixel fluorescence for each peptide was calculated.
# Peptide_017 = target: T2, Peptide_017
# Method: as §1, §2, §3
# Peptide_029 = target: T3, Peptide_029
# Method: as §1, §2, §3
# Peptide_032 = target: T4, Peptide_032
# Method: as §1, §2, §3
# Peptide_033 = target: T5, Peptide_033
# Method: as §1, §2, §3
# Peptide_040 = target: T6, Peptide_040
# Method: as §1, §2, §3
# Peptide_041 = target: T7, Peptide_041
# Method: as §1, §2, §3
# Peptide_042 = target: T8, Peptide_042
# Method: as §1, §2, §3
# Peptide_061 = target: T9, Peptide_061
# Method: as §1, §2, §3
# Peptide_068 = target: T10, Peptide_068
# Method: as §1, §2, §3
# Peptide_069 = target: T11, Peptide_069
# Method: as §1, §2, §3
# Peptide_070 = target: T12, Peptide_070
# Method: as §1, §2, §3
# Peptide_073 = target: T13, Peptide_073
# Method: as §1, §2, §3
# Peptide_078 = target: T14, Peptide_078
# Method: as §1, §2, §3
# Peptide_083 = target: T15, Peptide_083
# Method: as §1, §2, §3
# Peptide_001 = target: T16, Peptide_001
# Method: as §1, §2, §3
# Peptide_087 = target: T17, Peptide_087
# Method: as §1, §2, §3
# Peptide_091 = target: T18, Peptide_091
# Method: as §1, §2, §3
# Peptide_098 = target: T19, Peptide_098
# Method: as §1, §2, §3
# Peptide_099 = target: T20, Peptide_099
# Method: as §1, §2, §3
# Peptide_101 = target: T21, Peptide_101
# Method: as §1, §2, §3
# Peptide_002 = target: T22, Peptide_002
# Method: as §1, §2, §3
# Peptide_103 = target: T23, Peptide_103
# Method: as §1, §2, §3
# Peptide_104 = target: T24, Peptide_104
# Method: as §1, §2, §3
# Peptide_106 = target: T25, Peptide_106
# Method: as §1, §2, §3
# Peptide_108 = target: T26, Peptide_108
# Method: as §1, §2, §3
# Peptide_003 = target: T27, Peptide_003
# Method: as §1, §2, §3
# Peptide_005 = target: T28, Peptide_005
# Method: as §1, §2, §3
binder,measurement,setting,value
"monoclonal antibody B264 (antibody, mouse IgG1, kappa, V domains shown, also called AB264; B264 (Trx1-mIgG1)) VH: QVQLQQSGAELARPGASVKMSCKASGYTFTSYTMHWVKQRPGQGLEWIGYINPTSDYTNYNQKFKDKATLTADKSSSTAYMQLSSLTSEDSAVYFCASEGGFLYYFDYWGQGTTLTVSS VL: DVLMTQTPLSLPVSLGDQASISCRSSQSIVHSNGNTYLEWYLQKPGQSPKLLIYKVSNRFSGVPDRFSGSGSGTDFTLKISRVEAEDLGVYYCFQGSHVPYTFGGGTKLEIKR",binding result,Peptide_008,no binding (tested: 5 ug/mL)
same,binding result,Peptide_017,binds
same,binding result,Peptide_029,no binding (tested: 5 ug/mL)
same,binding result,Peptide_032,no binding (tested: 5 ug/mL)
same,binding result,Peptide_033,no binding (tested: 5 ug/mL)
same,binding result,Peptide_040,no binding (tested: 5 ug/mL)
same,binding result,Peptide_041,no binding (tested: 5 ug/mL)
same,binding result,Peptide_042,no binding (tested: 5 ug/mL)
same,binding result,Peptide_061,no binding (tested: 5 ug/mL)
same,binding result,Peptide_068,no binding (tested: 5 ug/mL)
same,binding result,Peptide_069,no binding (tested: 5 ug/mL)
same,binding result,Peptide_070,no binding (tested: 5 ug/mL)
same,binding result,Peptide_073,no binding (tested: 5 ug/mL)
same,binding result,Peptide_078,no binding (tested: 5 ug/mL)
same,binding result,Peptide_083,no binding (tested: 5 ug/mL)
same,binding result,Peptide_001,no binding (tested: 5 ug/mL)
same,binding result,Peptide_087,no binding (tested: 5 ug/mL)
same,binding result,Peptide_091,no binding (tested: 5 ug/mL)
same,binding result,Peptide_098,no binding (tested: 5 ug/mL)
same,binding result,Peptide_099,no binding (tested: 5 ug/mL)
same,binding result,Peptide_101,no binding (tested: 5 ug/mL)
same,binding result,Peptide_002,no binding (tested: 5 ug/mL)
same,binding result,Peptide_103,no binding (tested: 5 ug/mL)
same,binding result,Peptide_104,no binding (tested: 5 ug/mL)
same,binding result,Peptide_106,no binding (tested: 5 ug/mL)
same,binding result,Peptide_108,no binding (tested: 5 ug/mL)
same,binding result,Peptide_003,no binding (tested: 5 ug/mL)
same,binding result,Peptide_005,no binding (tested: 5 ug/mL)
